Assay results: patent EP4810516A1

Target: γ9δ2 TCR on human γ9δ2 T cells (human) (UniProt Q99603)
Experiment: FACS, serially diluted antibody on γ9δ2 T cells, anti-human Fc secondary

Chain of γ9δ2 TCR on human γ9δ2 T cells (human) (Q99603 21-122, stated change not applied, chain 1 of 2): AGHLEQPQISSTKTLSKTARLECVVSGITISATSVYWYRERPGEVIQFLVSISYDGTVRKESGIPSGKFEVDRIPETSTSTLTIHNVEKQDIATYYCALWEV
Chain of γ9δ2 TCR on human γ9δ2 T cells (human) (A0JD36 20-115, stated change not applied, chain 2 of 2, further chain): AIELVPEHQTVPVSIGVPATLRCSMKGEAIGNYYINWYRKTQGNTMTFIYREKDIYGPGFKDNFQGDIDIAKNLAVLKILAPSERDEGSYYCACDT

EC50: 1.74 nM
Max MFI: 15000 MFI
B1: SDP01369 (antibody, human IgG1, kappa, V domains shown)
VH: EVQLVESGGGLVKPGGSLRLSCAASGFTFSSYAMSWVRQAPGKRLEWVASISSGGSTYYPDSVKGRFTISRDNAKNSLYLQMNSLRAEDTAVYYCARDGYPPFDYWGQGTTVTVSS
VL: DIQMTQSPSSVSASVGDRVTITCKASQNVGTNVAWYQQKPGKAPKALIYSASYRYSGVPSRFSGSGSGTDFTLTISSLQPEDFATYYCQQYNSFPLTFGQGTKLEIKR
